Each block holds one molecule with its values, some of them ahead of it. Positions of bridges follow the written chain, without caps; N, C: chain ends.
Legend:
[1] = target: T1, human LRP6 construct E1 (amino acids A20-D325) (human, UniProt O75581 20-325); experiment: legend of FIG. 22
T1 construct: range 20-325; In the Fab crystal E1 arose from E1E2 degraded beyond Arg 335; residues Ala20 to Lys324 were traced; also called LRP6 E1; E1 domain
T1 sequence (looked up): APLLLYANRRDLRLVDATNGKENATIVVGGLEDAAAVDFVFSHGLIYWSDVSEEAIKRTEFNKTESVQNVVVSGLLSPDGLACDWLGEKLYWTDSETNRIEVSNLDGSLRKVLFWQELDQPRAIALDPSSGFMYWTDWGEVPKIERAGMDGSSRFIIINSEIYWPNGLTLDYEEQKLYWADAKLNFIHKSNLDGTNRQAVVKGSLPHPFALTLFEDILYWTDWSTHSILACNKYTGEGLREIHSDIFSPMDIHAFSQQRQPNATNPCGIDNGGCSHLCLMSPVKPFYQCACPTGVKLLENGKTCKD
Protocol: (§1) Binding kinetics were measured by biolayer interferometry using an Octet Red instrument (ForteBio) as previously described (11). Streptavidin (SA) biosensors were loaded with biotinylated hLRP6 in 50 mMTris, pH 8, 300 mM NaCl, 5% (v/v) glycerol, and 0.05% (w/v) Triton X-100. The loaded biosensors were washed in the same buffer before carrying out association and dissociation measurements for the indicated times. The Kd of each interaction was determined using steady state-analysis through the Octet Red software v6.3. Each reported value represents an average of three or more experiments at different concentrations, with a fitted experimental curve for which the square of the correlation coefficient (R²) is above 0.96.

[2] = target: T2, LRP6 E3E4 (Homo sapiens, UniProt O75581); experiment: Biolayer interferometry binding to LRP6 E3E4; conditions: steady state, read-out: affinity for LRP6 E3E4
T2 construct: construct E3E4 amino acids E631-Q1253 of LPR6; made in house; host or cells: Tni insect cells (baculovirus, secreted)
T2 sequence (O75581 631-1253): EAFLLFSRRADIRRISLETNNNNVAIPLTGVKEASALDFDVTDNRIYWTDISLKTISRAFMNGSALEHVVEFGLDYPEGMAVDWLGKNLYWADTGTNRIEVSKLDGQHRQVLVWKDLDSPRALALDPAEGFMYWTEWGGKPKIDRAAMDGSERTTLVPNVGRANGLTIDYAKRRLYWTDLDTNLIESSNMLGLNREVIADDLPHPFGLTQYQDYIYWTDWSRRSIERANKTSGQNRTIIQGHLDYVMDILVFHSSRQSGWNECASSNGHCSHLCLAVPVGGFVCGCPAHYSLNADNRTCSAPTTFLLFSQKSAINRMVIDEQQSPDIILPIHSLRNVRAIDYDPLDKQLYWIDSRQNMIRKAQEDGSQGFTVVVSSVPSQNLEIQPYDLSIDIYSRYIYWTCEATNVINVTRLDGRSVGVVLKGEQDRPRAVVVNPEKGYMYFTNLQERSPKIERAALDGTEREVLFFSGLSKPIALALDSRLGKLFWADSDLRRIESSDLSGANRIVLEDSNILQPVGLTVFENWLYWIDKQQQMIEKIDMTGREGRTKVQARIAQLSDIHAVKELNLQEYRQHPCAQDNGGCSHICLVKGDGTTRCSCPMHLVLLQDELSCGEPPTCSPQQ
Protocol: as §1, with “(R^2)” for “(R²)”
(§2) The interaction of the different Dkks and sclerostin with various domains of LRP6 was measured using a biolayer interferometry assay (11). Purified receptors contained individual β-propeller-EGF-like units (E1, E2, or E4), two β-propellers (E1E2 or E3E4), or four β-propellers (E1E4))—as follows:
(§3) Human LRP6: construct E1E4-amino acids A20-Q1253 of LPR6; construct E1E2-amino acids A20-E631 of LPR6; construct E3E4 amino acids E631-Q1253 of LPR6; construct E1-amino acids A20-D325 of LPR6; construct E2-amino acids […]-E631 of LPR6; construct E4-T933-Q1253. The individual LRP6 β-propeller E3 could not be expressed.

[3] = tested on: LRP6; experiment: Competition binding between Dkk1 and other Wnt pathway inhibitors (preloaded Dkk1); set-up: species or system human; conditions: Dkk1 100 nM preloaded, test ligand 100 nM
Protocol: FIG. 8. Competition binding between Dkk1 and other Wnt pathway inhibitors. The indicated LRP6 construct was preloaded onto biosensor tips. Dkk1 (100 nM) (or buffer control) and the test ligand (100 nM) were loaded sequentially onto the LRP6 tips. (A) Dkk2 competition with Dkk1. (B) Sclerostin competition with Dkk1. Percent binding in the presence of Dkk1 is shown relative to buffer control.
as §1, with “(R^2)” for “(R²)”
To assess whether Dkk1, Dkk2, and sclerostin might bind to the same site on LRP6 E1, Dkk2 or sclerostin binding was measured in the presence of preloaded Dkk1 (100 nM). […]

[4] = target: T3, LRP6 E2 (Homo sapiens, UniProt O75581); experiment: Biolayer interferometry binding to LRP6 E2
T3 construct: construct E2-amino acids D235-E631 of LPR6; made in house; host or cells: Tni insect cells (baculovirus, secreted)
T3 sequence (O75581 325-631 limits assumed): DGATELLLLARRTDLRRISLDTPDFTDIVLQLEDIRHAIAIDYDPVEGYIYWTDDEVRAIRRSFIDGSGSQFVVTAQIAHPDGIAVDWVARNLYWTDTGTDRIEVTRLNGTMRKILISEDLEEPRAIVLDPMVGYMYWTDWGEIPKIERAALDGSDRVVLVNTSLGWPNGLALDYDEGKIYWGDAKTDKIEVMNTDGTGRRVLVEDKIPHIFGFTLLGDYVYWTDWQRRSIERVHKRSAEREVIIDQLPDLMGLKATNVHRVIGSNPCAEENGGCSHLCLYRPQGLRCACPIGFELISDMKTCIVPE
Protocol: as §1, with “(R^2)” for “(R²)”
as §2, §3

[5] = target: T4, LRP6 E4 (Homo sapiens, UniProt O75581); experiment: Biolayer interferometry binding to LRP6 E4
T4 construct: construct E4-T933-Q1253; made in house; host or cells: Tni insect cells (baculovirus, secreted)
T4 sequence (O75581 933-1253): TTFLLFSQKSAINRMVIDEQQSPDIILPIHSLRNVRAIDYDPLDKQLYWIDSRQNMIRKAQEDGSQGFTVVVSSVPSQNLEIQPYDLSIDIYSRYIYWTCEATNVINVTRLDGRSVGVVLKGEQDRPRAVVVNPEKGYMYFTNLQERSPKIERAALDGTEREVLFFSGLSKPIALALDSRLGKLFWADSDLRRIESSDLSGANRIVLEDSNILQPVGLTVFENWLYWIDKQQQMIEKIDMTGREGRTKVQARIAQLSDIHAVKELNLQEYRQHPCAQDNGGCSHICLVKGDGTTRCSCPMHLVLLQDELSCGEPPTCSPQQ
Protocol: as §1, with “(R^2)” for “(R²)”
as §2, §3

[6] = target: T5, LRP6 E1E2 (Homo sapiens, UniProt O75581); experiment: Biolayer interferometry binding to LRP6 E1E2; conditions: steady state, read-out: affinity for LRP6 E1E2
T5 construct: construct E1E2-amino acids A20-E631 of LPR6; made in house; host or cells: Tni insect cells (baculovirus, secreted)
T5 sequence (O75581 20-631): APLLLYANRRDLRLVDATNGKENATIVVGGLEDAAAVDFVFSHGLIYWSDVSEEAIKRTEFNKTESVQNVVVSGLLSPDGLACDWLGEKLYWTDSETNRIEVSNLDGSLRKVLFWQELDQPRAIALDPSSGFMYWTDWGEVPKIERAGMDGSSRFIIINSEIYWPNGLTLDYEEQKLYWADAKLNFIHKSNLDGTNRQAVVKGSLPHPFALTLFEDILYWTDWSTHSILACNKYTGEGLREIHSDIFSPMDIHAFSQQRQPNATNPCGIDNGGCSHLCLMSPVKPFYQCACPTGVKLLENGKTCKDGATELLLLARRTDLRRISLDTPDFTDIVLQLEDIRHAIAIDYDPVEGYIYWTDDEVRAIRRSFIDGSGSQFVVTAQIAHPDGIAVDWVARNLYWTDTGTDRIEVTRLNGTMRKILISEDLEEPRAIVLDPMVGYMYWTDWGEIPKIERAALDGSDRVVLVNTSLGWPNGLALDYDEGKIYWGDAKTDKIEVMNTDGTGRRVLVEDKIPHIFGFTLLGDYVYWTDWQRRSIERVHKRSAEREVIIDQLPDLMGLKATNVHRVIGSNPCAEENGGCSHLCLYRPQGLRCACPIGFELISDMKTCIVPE
Protocol: as §1, with “(R^2)” for “(R²)”
as §2, §3

[7] = target: T6, LRP6 E1 (Homo sapiens, UniProt O75581); experiment: Biolayer interferometry binding to LRP6 E1
T6 construct: construct E1-amino acids A20-D325 of LPR6; made in house; host or cells: Tni insect cells (baculovirus, secreted)
T6 sequence (O75581 20-325): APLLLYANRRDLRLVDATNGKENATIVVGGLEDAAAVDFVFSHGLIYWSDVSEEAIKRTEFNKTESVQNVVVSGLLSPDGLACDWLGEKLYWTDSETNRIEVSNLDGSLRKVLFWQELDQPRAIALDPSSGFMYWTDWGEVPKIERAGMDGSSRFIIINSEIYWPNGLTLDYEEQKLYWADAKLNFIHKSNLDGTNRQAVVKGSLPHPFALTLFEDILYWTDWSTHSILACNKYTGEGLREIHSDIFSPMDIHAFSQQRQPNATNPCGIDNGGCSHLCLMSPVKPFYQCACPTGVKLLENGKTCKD
Protocol: as §1, with “(R^2)” for “(R²)”
as §2, §3

[8] = target: T7, human LRP6 construct E1E2 (amino acids A20-E631) (human, UniProt O75581 20-631, biotinylated for biolayer interferometry); experiment: competition phage ELISA
T7 construct: range 20-631; also called LRP6 E1E2
T7 sequence (looked up): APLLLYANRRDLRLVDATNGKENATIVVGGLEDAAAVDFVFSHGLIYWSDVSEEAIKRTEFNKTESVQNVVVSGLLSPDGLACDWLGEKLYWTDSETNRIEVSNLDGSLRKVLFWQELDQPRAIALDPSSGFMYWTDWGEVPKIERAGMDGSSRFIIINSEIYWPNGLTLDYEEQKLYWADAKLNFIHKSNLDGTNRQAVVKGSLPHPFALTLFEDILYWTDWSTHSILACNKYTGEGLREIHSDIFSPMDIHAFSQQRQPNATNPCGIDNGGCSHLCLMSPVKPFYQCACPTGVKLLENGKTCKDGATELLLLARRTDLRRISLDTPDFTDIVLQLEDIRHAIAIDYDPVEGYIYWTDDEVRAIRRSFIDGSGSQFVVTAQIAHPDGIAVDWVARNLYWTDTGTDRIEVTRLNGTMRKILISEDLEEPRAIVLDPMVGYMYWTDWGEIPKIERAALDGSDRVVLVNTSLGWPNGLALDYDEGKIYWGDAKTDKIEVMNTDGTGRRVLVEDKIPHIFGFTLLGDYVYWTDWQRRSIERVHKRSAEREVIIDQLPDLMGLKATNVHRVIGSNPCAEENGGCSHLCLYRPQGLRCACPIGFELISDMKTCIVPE
Protocol: Peptide affinities were also determined by competition with phage displaying a binding peptide (competition phage ELISA). Serial dilutions of test peptide were mixed with an appropriate (non-saturating) concentration of phage before exposing the mixture to target and allowing it to reach equilibrium. After washing to remove unbound material, bound phage were detected by incubation with anti-M13 antibody-horseradish peroxidase (HRP) conjugate and exposure to a suitable colorometric HRP substrate.
FIG. 7B. These peptides include the “NXI” motif described above. Affinities of the peptides for LRP6 E1E2 were determined by competition phage ELISA (41). […] To understand the detailed interactions of the peptides with LRP6, we determined high-resolution co-crystal structures of the peptides bound to the LRP6 E1 β-propeller.

binding result [1]: binds
Molecule: Ac-CNSIKFCG-NH2 (disulfide 1-7 (inferred), also called Peptide B) [Ac-CNSIKFCG-am (disulfide)]

Kd [2]: 38 nM
binding to LRP6 in the presence of preloaded Dkk1 [3]: inhibited only slightly
binding to LRP6 E2 (in words) [4]: Partial binding
binding to LRP6 E4 (in words) [5]: undetectable
Kd [6]: 53 nM
binding to LRP6 E1 (in words) [7]: bind with high affinity
B1: Dkk2: Dickkopf 2, carrier-free protein from R&D Systems (protein, UniProt Q9UBU2 34-259, looked up)
Dickkopf-related protein 2: KLNSIKSSLGGETPGQAANRSAGMYQGLAFGGSKKGKNLGQAYPCSSDKECEVGRYCHSPHQGSSACMVCRRKKKRCHRDGMCCPSTRCNNGICIPVTESILTPHIPALDGTRHRDRNHGHYSNHDLGWQNLGRPHTKMSHIKGHEGDPCLRSSDCIEGFCCARHFWTKICKPVLHQGEVCTKQRKKGSHGLEIFQRCDCAKGLSCKVWKDATYSSKARLHVCQKI

IC50 [8]: 4000 nM
Molecule: Ac-NSNAIKN-NH2 (also called Dkk1 peptide) [Dkk1 7-mer peptide Ac-NSNAIKN-am]
